Test results from patent US20190002506A1 (Dana-Farber, published 2019).
Each block holds one binder with its values, some of them ahead of it. Numbered stars: 1 amine (or outer) side, 2 acyl side, 3 side chain; on linkers, the order of the positions; unused ones are H or OH. Bridge positions count the residues as written; N and C are the ends. Square brackets hold non-standard residues; d marks the D form. Ends that are not written are not given here. * marks the point of attachment. warhead 3 = D-nipecotic acid acylated with acrylic acid, in place of L21, C=CC(=O)N1CCC[C@@H](C(=O)*)C1; Nip(3R) = O=C([C@@H]1CCCN([*:1])C1)[*:2]; warhead 1 = not defined here; S5 = C=CCCC[C@](C)(N)C(=O)O; Acryloyl = C=CC(=O)*

What was measured:
BFL-1ΔC C4S/C19S [1] = target: T1, BFL-1ΔC C4S/C19S (human, UniProt Q16548 1-153); assay: covalent conjugation, 10:1 peptide:protein, reducing denaturing gel, Coomassie
T1 construct: range 1-153; Made by site-directed mutagenesis of BFL-1ΔC; also called His-BFL-1ΔC C4S/C19S; C55-only BFL-1; not shown: N-terminal His tag from the pET19b vector
T1 sequence (looked up): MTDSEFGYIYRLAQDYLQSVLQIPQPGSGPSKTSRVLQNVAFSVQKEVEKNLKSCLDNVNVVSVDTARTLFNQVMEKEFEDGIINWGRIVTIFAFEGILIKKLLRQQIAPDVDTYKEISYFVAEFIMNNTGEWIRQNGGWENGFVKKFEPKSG
Method: Processing for gel electrophoresis and Coomassie staining was performed as above.

Bfl-1 (Examples 1-4) = target: T2, Bfl-1 (Examples 1-4) (UniProt Q16548 1-153, limits assumed); assay: fluorescence polarization, FITC-labelled SAHB, protein serially diluted from 1 µM
T2 construct: also called 9×His-tagged Bfl-1
T2 sequence (looked up): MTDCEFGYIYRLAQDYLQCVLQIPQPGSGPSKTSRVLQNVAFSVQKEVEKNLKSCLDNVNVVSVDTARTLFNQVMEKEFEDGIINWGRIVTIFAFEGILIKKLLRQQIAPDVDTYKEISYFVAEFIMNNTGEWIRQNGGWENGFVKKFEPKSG
Method: (§1) The solution-state equilibrium binding assay was used to determine binding affinities of the stapled peptides to the anti-apoptotic proteins. Proteins were serially diluted from 1 μM, then combined with FITC-labeled SAHB and polarization measured at 5 min on a microplate reader. We then calculated dissociation constants (KD) by nonlinear regression analysis of dose-response curves.

MCL-1 (Examples 1-4) = target: T3, MCL-1 (Examples 1-4) (UniProt Q07820 170-327, limits assumed); assay: as above
T3 construct: also called MCL-I
Method: as §1

BFL-1ΔC (aa 1-153) [2] = target: T4, BFL-1ΔC (aa 1-153) (human, UniProt Q16548 1-153); assay: biolayer interferometry (Octet RED384): biotin-PEG-NOXA SAHB on super streptavidin tips, BFL-1ΔC construct in solution
T4 construct: also called wild-type BFL-1ΔC; BFL-1 WT
T4 sequence: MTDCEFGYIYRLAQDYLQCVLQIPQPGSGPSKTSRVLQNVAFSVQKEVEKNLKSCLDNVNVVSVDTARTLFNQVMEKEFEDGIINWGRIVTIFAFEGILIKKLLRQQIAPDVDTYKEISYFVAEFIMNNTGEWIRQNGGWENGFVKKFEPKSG
Method: (§2) Excess streptavidin was quenched by incubation with 2 μg/mL biocytin. The tips were then washed with kinetics buffer and soaked in a serial dilution of BFL-1ΔC for 10 min to measure association rate, followed by a 15 min incubation in kinetics buffer to measure dissociation rate. Dissociation constants were calculated using Octet Data Analysis version 9.0.

BFL-1ΔC C4S/C19S [3] = target: T1, BFL-1ΔC C4S/C19S; assay: as above
Method: as §2

BFL-1ΔC C4S/C19S/C55S = target: T5, BFL-1ΔC C4S/C19S/C55S (human, UniProt Q16548 1-153); assay: as above
T5 construct: range 1-153; Made by site-directed mutagenesis of BFL-1ΔC; also called BFL-1 with no cysteines; not shown: N-terminal His tag from the pET19b vector
T5 sequence (looked up): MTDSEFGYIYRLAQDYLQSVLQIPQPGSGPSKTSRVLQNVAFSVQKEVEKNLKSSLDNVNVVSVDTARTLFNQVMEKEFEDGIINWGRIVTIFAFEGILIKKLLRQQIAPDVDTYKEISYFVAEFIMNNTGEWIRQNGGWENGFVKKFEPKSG
Method: as §2

BFL-1ΔC (aa 1-153) [4] = target: T4, BFL-1ΔC (aa 1-153); assay: covalent conjugation with BFL-1 cysteine mutants, gel shift
HA-BFL-1ΔC C4S/C19S = target: T6, HA-BFL-1ΔC C4S/C19S (human, UniProt Q16548 1-153); assay: 293T lysates, 10 µM biotinylated peptide, anti-HA and anti-biotin western
T6 construct: range 1-153; also called expressed HA-BFL-1ΔC C4S/C19S; not shown: HA tag (pCMV plasmid)
T6 sequence (looked up): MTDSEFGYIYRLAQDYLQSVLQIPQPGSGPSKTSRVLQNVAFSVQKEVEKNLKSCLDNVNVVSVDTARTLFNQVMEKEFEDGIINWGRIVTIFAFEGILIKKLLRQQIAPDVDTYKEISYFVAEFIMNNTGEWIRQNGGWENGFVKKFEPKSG
Method: For lysate experiments, cells were trypsinized 24 hours post-transfection, washed with PBS, and lysed by incubation with 1% CHAPS lysis buffer (150 mM NaCl, 50 mM Tris pH 7.4, 100 mM DTT). Protein concentration of the soluble fraction was measured using a BCA kit according to manufacturer's instructions (Thermo Scientific). […] Samples were then boiled in LDS buffer and subjected to western analysis using 1:1000 dilutions of HA (Sigma-Aldrich, #12CA5) and biotin (Abcam, #53494) antibodies. […] After 24 h, cells were trypsinized, washed with PBS, lysed in 1% CHAPS buffer, and the supernatant collected for protein concentration determination by BCA kit. […] The mixtures were then subjected to HA or FLAG (Sigma-Aldrich, F7425) immunoprecipitation, followed by western analysis using 1:1000 dilutions of HA, FLAG, biotin, and BID (Santa Cruz sc-11423) antibodies. […] Cells were harvested and lysed as above, and incubated overnight with anti-HA agarose beads (Pierce). The beads were washed 3 times with lysis buffer, eluted by boiling in LDS buffer, and subjected to western analysis with HA and biotin antibodies.

T3 sequence (Q07820 170-327 limits assumed): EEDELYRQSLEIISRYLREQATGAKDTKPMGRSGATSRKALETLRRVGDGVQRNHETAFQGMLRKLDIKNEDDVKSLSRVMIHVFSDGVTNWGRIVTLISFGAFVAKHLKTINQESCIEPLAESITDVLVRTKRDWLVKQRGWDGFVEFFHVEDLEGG

B1: NOXA SAHBA (peptide)
peptide: AELEVECATQLR[S5]FGD[S5]LNFRQKLL
modifications: staple 13-17; also: N-terminus PEG-biotin or FITC depending on assay
notes: Stapled NOXA BH3 peptide (aa 19-43) with native C25; also called WT NOXA SAHB; wild-type NOXA SAHBA
EC50 (read off the curve) (Bfl-1 (Examples 1-4)): ~100 nM | EC50 (read off the curve) (MCL-1 (Examples 1-4)): ~200 nM | Kd (BFL-1ΔC (aa 1-153) [2]): 122 nM | Kd (BFL-1ΔC C4S/C19S [3]): 165 nM | Kd (BFL-1ΔC C4S/C19S/C55S): 118 nM

B3: NOXA SAHBA C25S (peptide)
peptide: AELEVESATQLR[S5]FGD[S5]LNFRQKLL
modifications: staple 13-17; also: N-terminus PEG-biotin or FITC depending on assay
notes: Stapled NOXA BH3 peptide with C25S; also called NOXA C25S SAHB; NOXA C25 SAHB
Kd (BFL-1ΔC (aa 1-153) [2]): 46.6 nM | Kd (BFL-1ΔC C4S/C19S [3]): 47.2 nM | Kd (BFL-1ΔC C4S/C19S/C55S): 58.2 nM

Binder: Acryloyl-IAQELR[S5]IGD[S5]FNAYYARR (staple 7-11, also called BIM SAHBA-WH, warhead 8) [BIM SAHBA bearing warhead 8 (of FIG. 12B)]
binding result (BFL-1ΔC C4S/C19S [1]): binds

Binder: Acryloyl-EVESATQLR[S5]FGD[S5]LNFRQKLL (staple 10-14, also called NOXA SAHBA-WH, warhead 8) [NOXA SAHBA bearing warhead 8 (of FIG. 12B)]
binding result (BFL-1ΔC C4S/C19S [1]): binds

Binder: [warhead 1]EVESATQLR[S5]FGD[S5]LNFRQKLL (staple 11-15; reading uncertain, also called NOXA SAHBA-WH, warhead 1) [NOXA SAHBA bearing warhead 1 (of FIG. 12B)]
binding result (BFL-1ΔC C4S/C19S [1]): binds

B4: NOXA SAHBA-3 (peptide)
peptide: [warhead 3]EVESATQLR[S5]FGD[S5]LNFRQKLL
modifications: staple 11-15; also: biotinylated form carries C-terminal Lys-biotin
notes: also called NOXA SAHBA-WH with warhead 3; biotinylated NOXA SAHBA-3
binding result (BFL-1ΔC (aa 1-153) [4]): binds | binding result (HA-BFL-1ΔC C4S/C19S): binds | binding result (BFL-1ΔC C4S/C19S [1]): binds

Further lines, results first:

binding result (BFL-1ΔC C4S/C19S [1]): binds
Binder: [(3S)‑1‑acryloylpyrrolidine‑3‑carboxylic acid]IAQELR[S5]IGD[S5]FNAYYARR (staple 8-12, also called BIM SAHBA-WH, warhead 1) [BIM SAHBA bearing warhead 1 (of FIG. 12B)]

EC50 (read off the curve) (Bfl-1 (Examples 1-4)): ~200 nM | binding result (MCL-1 (Examples 1-4)): no binding (tested: 1e-6 M)
B2: NOXA SAHBA F32Y (peptide)
peptide: AELEVECATQLR[S5]YGD[S5]LNFRQKLL
modifications: staple 13-17; also: FITC-labelled, site not given here
notes: member of the group m25; also called NOXA SAHB F32 variant with tyrosine

binding result (BFL-1ΔC (aa 1-153) [4]): binds | binding result (HA-BFL-1ΔC C4S/C19S): binds | binding result (BFL-1ΔC C4S/C19S [1]): binds
B5: BIM SAHBA-3 (peptide)
peptide: [Nip(3R)](Acryloyl)IAQELR[S5]IGD[S5]FNAYYARR
modifications: staple 8-12
notes: also called BIM SAHBA-WH with warhead 3; biotinylated BIM SAHBA-3
